Data as given in patent US20250171531A1 (ORIONIS BIOSCIENCES, published 2025).

Columns and labels:
[1] = target: T1, recombinant IL-2 (Acro Biosystems) (UniProt P60568 21-153); experiment: BLI, biotinylated IL-2 on streptavidin sensors, seven concentrations of construct as analyte
T1 construct: also called Interleukin-2; wild type recombinant IL-2
Source text: (§1) In brief, recombinant IL-2 (Acro Biosystems) was biotinylated using the Pierce Antibody Biotinylation Kit for IP (ThermoFisher) and loaded on Streptavidin sensors. […] Sensorgrams and calculated binding kinetics provided in FIG. 2 illustrate that (i) all anti-IL-2 constructs clearly bind to biotinylated IL-2; (ii) for both anti-IL-2 antibody scFv variants, the VL-VH configuration (referred to as scFv_v2) seems to work best; and (iii) TCB2-based anti-IL-2 constructs tend to associate faster, while NARA1 anti-IL-2 constructs dissociate slower.

[2] = target: CD8alpha on CD8 positive T cells of PBMCs (UniProt P01732 22-235, limits assumed); experiment: cell-based or functional assay
[3] = target: T1, recombinant IL-2 (Acro Biosystems); experiment: BLI (Octet RED96)
Source text: as §1

T1 sequence (P60568 21-153 limits assumed): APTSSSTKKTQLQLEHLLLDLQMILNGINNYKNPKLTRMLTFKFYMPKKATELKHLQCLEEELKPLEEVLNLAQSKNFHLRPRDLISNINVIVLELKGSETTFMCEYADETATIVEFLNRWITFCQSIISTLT
Chain of CD8alpha on CD8 positive T cells of PBMCs (P01732 22-235 limits assumed): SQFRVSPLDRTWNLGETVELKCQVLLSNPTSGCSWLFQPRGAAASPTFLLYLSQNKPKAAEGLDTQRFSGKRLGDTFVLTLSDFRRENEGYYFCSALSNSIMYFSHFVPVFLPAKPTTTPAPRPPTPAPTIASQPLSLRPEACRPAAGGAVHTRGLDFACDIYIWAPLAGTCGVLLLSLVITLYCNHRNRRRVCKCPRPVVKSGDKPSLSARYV

binding result [1]	Binder	also measured
binds	anti-IL-2 Ab TCB2 scFv_VH-VL-3*GGGGS-anti-CD8 OKT8 scFv_VH-VL-6*His (bispecific antibody, Single chain of two scFvs with a C-terminal His6 tag; Leader (residues 1-19) left out) EVQLQQSGAELARPGASVKLSCKASGYTFTTYWIQWVKQRPGQGLEWIGAIYPGDGDTRYIQNFKGKATLTADKSSSTAYMQLSSLASEDSAVYYCARSLATRGFYAMDYWGQGTSVTVSSGGGGSGGGGSGGGGSDIVMTQSPASLSMAIGEKVTIRCITSTDIDDDMNWYQQKPGEPPKLLISEGNTLRPGVPSRFSSSGYGTDFVFTIENMLSEDVADYYCLQSDNLPYTFGGGTKLEIKGGGGSGGGGSGGGGSEVQLVQSGAEVKKPGASVKVSCKASGFNIKDTYIHWVRQAPGQGLEWIGRIDPANDNTLYASKFQGRATITADTSTSTAYLELSSLRSEDTAVYYCGRGYGYYVFDHWGQGTLVTVSSGGGGSGGGGSGGGGSDVQITQSPSSLSASVGDRVTITCRTSRSISQYLAWYQEKPGKTNKLLIYSGSTLQSGIPSRFSGSGSGTDFTLTISSLQPEDFATYYCQQVNEFPPTFGQGTKVEIKHHHHHH	–
binds	anti-IL-2 Ab TCB2 scFv_VL-VH-3*GGGGS-anti-CD8 OKT8 scFv_VH-VL-6*His (bispecific antibody, Single chain of two scFvs with a C-terminal His6 tag; Leader (residues 1-19) left out) DIVMTQSPASLSMAIGEKVTIRCITSTDIDDDMNWYQQKPGEPPKLLISEGNTLRPGVPSRFSSSGYGTDFVFTIENMLSEDVADYYCLQSDNLPYTFGGGTKLEIKGGGGSGGGGSGGGGSEVQLQQSGAELARPGASVKLSCKASGYTFTTYWIQWVKQRPGQGLEWIGAIYPGDGDTRYIQNFKGKATLTADKSSSTAYMQLSSLASEDSAVYYCARSLATRGFYAMDYWGQGTSVTVSSGGGGSGGGGSGGGGSEVQLVQSGAEVKKPGASVKVSCKASGFNIKDTYIHWVRQAPGQGLEWIGRIDPANDNTLYASKFQGRATITADTSTSTAYLELSSLRSEDTAVYYCGRGYGYYVFDHWGQGTLVTVSSGGGGSGGGGSGGGGSDVQITQSPSSLSASVGDRVTITCRTSRSISQYLAWYQEKPGKTNKLLIYSGSTLQSGIPSRFSGSGSGTDFTLTISSLQPEDFATYYCQQVNEFPPTFGQGTKVEIKHHHHHH	–
–	'knob-in-hole' Fc-Anti-IL-2 construct (TCB2 scFv_v2-hFc3 + hFc4-OKT8 scFv) (bispecific antibody) chain 1: DIVMTQSPASLSMAIGEKVTIRCITSTDIDDDMNWYQQKPGEPPKLLISEGNTLRPGVPSRFSSSGYGTDFVFTIENMLSEDVADYYCLQSDNLPYTFGGGTKLEIKGGGGSGGGGSGGGGSEVQLQQSGAELARPGASVKLSCKASGYTFTTYWIQWVKQRPGQGLEWIGAIYPGDGDTRYIQNFKGKATLTADKSSSTAYMQLSSLASEDSAVYYCARSLATRGFYAMDYWGQGTSVTVSSGGSGGSGGSGGSGGSDKTHTCPPCPAPEAAGGPSVFLFPPKPKDTLMISRTPEVTCVVVDVSHEDPEVKFNWYVDGVEVHNAKTKPREEQYNSTYRVVSVLTVLHQDWLNGKEYKCKVSNKALPAGIEKTISKAKGQPREPQVCTLPPSRDELTKNQVSLSCAVKGFYPSDIAVEWESNGQPENNYKTTPPVLDSDGSFFLVSKLTVDKSRWQQGNVFSCSVMHEALHNHYTQKSLSLSPGK chain 2: not shown	IL-2 driven STAT5 phosphorylation in CD8+ over Treg cells [2]: 10 fold
–	anti-IL-2 Ab NARA1 scFv_VH-VL-3*GGGGS-anti-CD8 OKT8 scFv_VH-VL-6*His (bispecific antibody, Single chain of two scFvs with a C-terminal His6 tag) QVQLQQSGAELVRPGTSVKVSCKASGYAFTNYLIEWVKQRPGQGLEWIGVINPGSGGTNYNEKFKGKATLTADKSSSTAYMQLSSLTSDDSAVYFCARWRGDGYYAYFDVWGAGTTVTVSSGGGGSGGGGSGGGGSDIVLTQSPASLAVSLGQRATISCKASQSVDYDGDSYMNWYQQKPGQPPKLLIYAASNLESGIPARFSGSGSGTDFTLNIHPVEEEDAATYYCQQSNEDPYTFGGGTKLEIKGGGGSGGGGSGGGGSEVQLVQSGAEVKKPGASVKVSCKASGFNIKDTYIHWVRQAPGQGLEWIGRIDPANDNTLYASKFQGRATITADTSTSTAYLELSSLRSEDTAVYYCGRGYGYYVFDHWGQGTLVTVSSGGGGSGGGGSGGGGSDVQITQSPSSLSASVGDRVTITCRTSRSISQYLAWYQEKPGKTNKLLIYSGSTLQSGIPSRFSGSGSGTDFTLTISSLQPEDFATYYCQQVNEFPPTFGQGTKVEIKHHHHHH	binding result [3]: binds
binds	anti-IL-2 Ab NARA1 scFv_VL-VH-3*GGGGS-anti-CD8 OKT8 scFv_VH-VL-6*His (bispecific antibody, Single chain of two scFvs with a C-terminal His6 tag; Leader (residues 1-19) left out) DIVLTQSPASLAVSLGQRATISCKASQSVDYDGDSYMNWYQQKPGQPPKLLIYAASNLESGIPARFSGSGSGTDFTLNIHPVEEEDAATYYCQQSNEDPYTFGGGTKLEIKGGGGSGGGGSGGGGSQVQLQQSGAELVRPGTSVKVSCKASGYAFTNYLIEWVKQRPGQGLEWIGVINPGSGGTNYNEKFKGKATLTADKSSSTAYMQLSSLTSDDSAVYFCARWRGDGYYAYFDVWGAGTTVTVSSGGGGSGGGGSGGGGSEVQLVQSGAEVKKPGASVKVSCKASGFNIKDTYIHWVRQAPGQGLEWIGRIDPANDNTLYASKFQGRATITADTSTSTAYLELSSLRSEDTAVYYCGRGYGYYVFDHWGQGTLVTVSSGGGGSGGGGSGGGGSDVQITQSPSSLSASVGDRVTITCRTSRSISQYLAWYQEKPGKTNKLLIYSGSTLQSGIPSRFSGSGSGTDFTLTISSLQPEDFATYYCQQVNEFPPTFGQGTKVEIKHHHHHH	–
